This is an account of results in patent US20190134161A1 (PEGBIO, published 2019).

For the assay, the target named is glucagon receptor. Kind of assay: cell-based or functional assay.

B1: PB-721 (peptide)
peptide: HSQGTFTSDYSKYLDSRRAQDFVQWLMNTC
modifications: not fully specified; mPEG-23 KD-ppMAL conjugated to PB-740 (cysteine added after the 29th amino acid)
For B1, the “In Vitro EC50 (cAMP release, HEK293 cells stably expressing the glucagon receptor, cAMP ELISA)” value amounted to 6.94 nM.
To HSQGTFTSDYSKYLDSRRAQDFVQWLMNTC [PB-740] belongs 1.45 nM.
